In data set [1] the target is T1, Synechocystis sp. PCC 6803 alcohol dehydrogenase SynAdh (slr1192, BAA18840), wild type, SEQ ID NO:4, overexpressed, crude extract (Synechocystis sp. PCC 6803, UniProt P74721).
T1 construct: PCC 6803; crude cell extract
T1 sequence (P74721 1-336): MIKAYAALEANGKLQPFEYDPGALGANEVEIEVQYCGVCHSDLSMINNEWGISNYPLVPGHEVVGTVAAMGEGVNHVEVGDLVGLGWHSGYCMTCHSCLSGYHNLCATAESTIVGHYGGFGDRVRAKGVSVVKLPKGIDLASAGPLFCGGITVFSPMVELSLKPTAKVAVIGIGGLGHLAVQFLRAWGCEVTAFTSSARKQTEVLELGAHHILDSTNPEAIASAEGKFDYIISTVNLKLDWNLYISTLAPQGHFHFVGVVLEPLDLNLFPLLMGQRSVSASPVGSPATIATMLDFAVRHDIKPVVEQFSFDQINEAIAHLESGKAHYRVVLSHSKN
Briefly: Acetaldehyde reduction by crude extract of Synechocystis overexpressing SynAdh, varied cosubstrate (Lineweaver-Burk). As to conditions: pH 6.1. The format is biochemical.

Data set [2] has as its system Zymomonas mobilis ADH I (ZmAdhI, AAV89860), SEQ ID NO:2. As to conditions: literature values; ranges given jointly for ADH I and ADH II; cited from earlier work.
The test system of data set [3] is Zymomonas mobilis ADH II (ZmAdhII). To be noted: literature values; ranges given jointly for ADH I and ADH II; cited from earlier work.
For data set [4], the system named is Zymomonas mobilis ADH II (with Pdc) in intact Synechocystis PCC 6803 cells, strain 6803-pVZ-PisiA (pVZ-PisiA-Pdc-AdhII). As to the kind of experiment: Ethanol production by intact cells of strain 6803-pVZ-PisiA after addition of acetaldehyde (Lineweaver-Burk). The format is cell-based, Synechocystis PCC 6803 (Zymomonas mobilis AdhII). Here is the method:
Methods: Synechocystis PCC 6803 wild type and the transgenic strain “6803-pVZ-PisiA”, corresponding to the above described Synechocystis pVZ-PisiA-Pdc-AdhII, were washed twice with BG11 (centrifugation 15 min, 4500 rpm, 4° C.; Rotina 420R, Hettich) and redissolved in BG11. Aliquots of 2 ml were spiked with acetaldehyde. The assays were incubated at room temperature under illumination. Samples of 250 μl were removed in defined time intervals (5 min or 10 min) and centrifuged (3 min, 14000 rpm, room temperature, Micro 200R, Hettich).
Ethanol was quantified with a described protocol. The method is based on oxidation of ethanol catalyzed by alcohol dehydrogenase (Sigma, Adh of S. cerevisiae). NADH formed in this reaction, reacts with the PMS/MTT reagent to a dye.
OD750 of the culture was 0.56.
This experiment was repeated with a different culture of strain 6803-pVZ-PisiA of OD750 of 1.353 and a chlorophyll concentration of 4.6 μg/ml. Similar results were obtained.

For data set [5], the system named is Zymomonas mobilis ADH II, crude extract of Synechocystis strain 6803-pVZ-PisiA (pVZ-PisiA-Pdc-AdhII). Briefly: Adh activity of crude extract of strain 6803-pVZ-PisiA in the direction of ethanol formation (Lineweaver-Burk). The data set is classed as biochemical. As to conditions: for Km: read-out: Km for acetaldehyde. The procedure: For preparation of crude extracts, cells were harvested, washed with 40 mM MES/Tris (pH 6.5), 1 mM DTT and broken (beadbeater, 2×10 min). The supernatant of a centrifugation (15 min, 14000 rpm, 4° C., Micro 200R, Hettich) was used for the determination of Adh activity in cells.
The initial velocity was calculated from the dE/min at 340 nm.
In order to compare the dates acquired with intact cells, the kinetic constants of alcohol dehydrogenase in crude extracts of strain 6803-pVZ-PisiA were measured. […] A graphical representation of the results obtained is given in form of a “Lineweaver-Burk” plot (FIG. 8).
In a second experiment the Adh activity was measured at pH 7.5. NADH and NADPH were used as co-substrates.

Substrate in data set [6]: NC(=O)C1=CN([C@@H]2O[C@H](COP(=O)(O)OP(=O)(O)OC[C@H]3O[C@@H](n4cnc5c(N)ncnc54)[C@H](O)[C@@H]3O)[C@@H](O)[C@H]2O)C=CC1
As to the kind of experiment: cells, lysate or membranes. As to conditions: other: acetaldehyde reduction, crude extract, pH 6.1.

Substrate in data set [7]: NC(=O)C1=CN([C@@H]2O[C@H](COP(=O)(O)OP(=O)(O)OC[C@H]3O[C@@H](n4cnc5c(N)ncnc54)[C@H](OP(=O)(O)O)[C@@H]3O)[C@@H](O)[C@H]2O)C=CC1
As to the kind of experiment: cells, lysate or membranes. To be noted: other: acetaldehyde reduction, crude extract, pH 6.1.

Substrate in data set [8]: CCO
Briefly: purified protein, by the assay type. As to conditions: other: ethanol oxidation.

Substrate in data set [9]: NC(=O)C1=CN([C@@H]2O[C@H](COP(=O)(O)OP(=O)(O)OC[C@H]3O[C@@H](n4cnc5c(N)ncnc54)[C@H](O)[C@@H]3O)[C@@H](O)[C@H]2O)C=CC1
Briefly: purified protein, by the assay type. To be noted: other: acetaldehyde reduction.

Substrate in data set [10]: NC(=O)C1=CN([C@@H]2O[C@H](COP(=O)(O)OP(=O)(O)OC[C@H]3O[C@@H](n4cnc5c(N)ncnc54)[C@H](OP(=O)(O)O)[C@@H]3O)[C@@H](O)[C@H]2O)C=CC1
As to the kind of experiment: purified protein, by the assay type. To be noted: other: acetaldehyde reduction.

Substrate in data set [11]: NC(=O)c1ccc[n+]([C@@H]2O[C@H](COP(=O)([O-])OP(=O)(O)OC[C@H]3O[C@@H](n4cnc5c(N)ncnc54)[C@H](O)[C@@H]3O)[C@@H](O)[C@H]2O)c1
As to the kind of experiment: purified protein, by the assay type. As to conditions: other: ethanol oxidation.

Substrate in data set [12]: NC(=O)c1ccc[n+]([C@@H]2O[C@H](COP(=O)([O-])OP(=O)(O)OC[C@H]3O[C@@H](n4cnc5c(N)ncnc54)[C@H](OP(=O)(O)O)[C@@H]3O)[C@@H](O)[C@H]2O)c1
Briefly: purified protein, by the assay type. To be noted: other: ethanol oxidation.

Substrate in data set [13]: CC=O
As to the kind of experiment: Acetaldehyde reduction (forward reaction) by purified SynAdh, Km determination. The format is biochemical, Synechocystis sp. PCC 6803. As to conditions: other: acetaldehyde reduction.

Setting [14] is: pH 7.5, NADH 0.25 M or NADPH 0.21 M.

Like-named read-outs stand apart in the source and are kept apart here.

Take `NC(=O)C1=CN([C@@H]2O[C@H](COP(=O)(O)OP(=O)(O)OC[C@H]3O[C@@H](n4cnc5c(N)ncnc54)[C@H](O)[C@@H]3O)[C@@H](O)[C@H]2O)C=CC1` [NADH, reduced nicotinamide-adenine dinucleotide]: the “vmax for NADH” value in [1] is 1.6 μMol min^−1 ml^−1 crude extract.

Consider `CCO` [ethanol], for which the Km in [2] was 24 µM; in data set [3], 140 µM.

As for `CC=O` [acetaldehyde], the Km amounted to 18 µM in data set [4] (OD750 0.56); 25 µM in data set [4] (repeat, OD750 1.353, chlorophyll 4.6 μg/ml); 45 µM in data set [5] (pH 6.5, NADH in excess); 100 µM in data set [5] (setting [14]). The Vmax is 3.2 µmol/L/min in data set [4] (OD750 0.56); 4.35 µmol/L/min in data set [4] (repeat, OD750 1.353); 0.95 µmol/L/mg in data set [4] (repeat, using chlorophyll as reference); 7.2 μMol L^−1 mg^−1 chlorophyll in [5] (pH 6.5, NADH in excess); 0.89 μMol L^−1 mg^−1 chlorophyll in data set [5] (setting [14]).

On to `NC(=O)C1=CN([C@@H]2O[C@H](COP(=O)(O)OP(=O)(O)OC[C@H]3O[C@@H](n4cnc5c(N)ncnc54)[C@H](OP(=O)(O)O)[C@@H]3O)[C@@H](O)[C@H]2O)C=CC1` [NADPH], for which the “vmax for NADPH” value in data set [1] is given as 0.4 μMol min^−1 ml^−1 crude extract.

As to `NC(=O)c1ccc[n+]([C@@H]2O[C@H](COP(=O)([O-])OP(=O)(O)OC[C@H]3O[C@@H](n4cnc5c(N)ncnc54)[C@H](O)[C@@H]3O)[C@@H](O)[C@H]2O)c1` [NAD^+, nicotinamide-adenine dinucleotide], the Km in [2] was 73 µM; in data set [3], 110 µM.

B1: Synechocystis sp. PCC 6803 alcohol dehydrogenase SynAdh (slr1192, BAA18840), wild type, SEQ ID NO:4, overexpressed, crude extract (Synechocystis sp. PCC 6803 … (protein)
chain: T1 sequence (P74721 1-336)
For the molecule B1, the Km in data set [6] came out at 1000 µM; in [7] it was 15 µM.

B2: Synechocystis sp. PCC 6803 alcohol dehydrogenase SynAdh (slr1192, BAA18840), wild type, SEQ ID NO:4, purified (Synechocystis sp. PCC 6803 substr. Kazusa) (protein)
chain: T1 sequence (P74721 1-336)
Regarding B2, the Km in data set [8] (pH 7.5, 150 mM KCl, pH 7.5) amounted to 23 mM mM; in data set [8] (pH 8.5), 59 mM mM; in data set [9] (pH 7.5, 150 mM KCl, pH 7.5), 1000 μM μM; in data set [9] (purified enzyme) it was 1000 µM; in data set [10] (pH 6.0), 20 μM μM; in data set [10] (pH 7.5, 150 mM KCl, pH 7.5), 15 μM μM. The Km in data set [10] (purified enzyme) worked out at 15 µM; in [11] (pH 7.5, 150 mM KCl, pH 7.5), 10 mM mM; in data set [11] (pH 8.5), 10 mM mM; in [12] (pH 7.5, 150 mM KCl, pH 7.5), 15 μM μM; in data set [12] (pH 8.5), 15 μM μM; in [13] (pH 6.0) it was 200 μM μM. In addition, the Km in data set [13] (pH 7.5, 150 mM KCl, pH 7.5) was determined as 180 μM μM; in [13] (purified enzyme), 200 µM.

The record behind these values is patent US8163516B2 (Algenol Biofuels Inc., priority 2008, dated 2012).
